Square brackets hold non-standard residues; d marks the D form. Ends that are not written are not given here. Arg(Me2a) = CN(C)C(=N)NCCC[C@H](N)C(=O)O; Lys(Me3) = C[N+](C)(C)CCCC[C@H](N)C(=O)O
T1: SET domain of Ricinus communis ATXR5 (a.a. 158-374) (Ricinus communis, UniProt B9RU15 158-374)
T1 sequence: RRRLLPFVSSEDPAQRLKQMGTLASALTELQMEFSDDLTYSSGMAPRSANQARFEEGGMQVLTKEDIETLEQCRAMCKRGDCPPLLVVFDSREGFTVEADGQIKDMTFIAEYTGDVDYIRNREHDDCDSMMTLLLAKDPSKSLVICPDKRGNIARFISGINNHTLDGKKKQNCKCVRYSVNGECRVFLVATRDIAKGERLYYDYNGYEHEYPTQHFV


What was measured:
[1] = molecular target: nucleosome core particle (Xenopus laevis recombinant histone octamer on 147 bp 601 DNA) (Xenopus laevis); experiment: native gel or EMSA
[2] = molecular target: RcATXR5 (ATXR5 SET domain) (Ricinus communis, UniProt B9RU15); type: binding
[3] = molecular target: T1, SET domain of Ricinus communis ATXR5 …; experiment: crystal structure

Molecule	binding result [3]	other results
full-length Glycine max ATXR5 (a.a. 1-334) (enzyme)	–	Kd [1]: 380 nM
Nc1ncnc2c1ncn2[C@@H]1O[C@H](C[C@@H](N)CC[C@H](N)C(=O)O)[C@@H](O)[C@H]1O [SFG, sinefungin]	–	GST pull-down, compound-dependent association with GST-PHD [2]: PHD domain of ATXR5 senses the binding of sinefungin to the SET domain
KQLATKAA[Rme1]KSAPATGGVKY [histone H3.1 peptide (a.a. 18-36) R26me1]	binds	–
KQLATKAA[Arg(Me2a)]KSAPATGGVKY (not fully specified) [histone H3.1 peptide (a.a. 18-36) R26me2a]	binds	–
KQLATKAARKSAPATGGV[Lys(Me3)]Y [histone H3.1 peptide (a.a. 18-36) K36me3]	binds	–
